From patent US20020155547A1 (Biogen, published 2002)

T1: IFNAR2/Fc fusion protein (extracellular domain of the human IFNAR2 receptor chain fused to the hinge, CH2 and … (human, UniProt P48551 27-243))
T1 construct: extracellular domain; also called IFNAR2-ectodomain/Fc fusion protein; IFNAR/Fc; not shown: human IgG1 heavy chain constant region: hinge, CH2 and CH3 domains
T1 sequence (looked up): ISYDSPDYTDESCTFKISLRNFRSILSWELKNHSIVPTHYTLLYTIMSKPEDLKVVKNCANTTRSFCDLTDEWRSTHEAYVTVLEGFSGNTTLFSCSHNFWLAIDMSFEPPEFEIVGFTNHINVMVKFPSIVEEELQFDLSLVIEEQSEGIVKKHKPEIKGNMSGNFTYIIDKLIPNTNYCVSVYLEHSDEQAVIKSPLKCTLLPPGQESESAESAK

T2: type I interferon cell surface receptor complex (IFNAR1/2 complex) expressed on Daudi Burkitt's lymphoma cells (human, UniProt P17181 28-557; P48551 27-515)
T2 construct: whole, on cells; Both chains together comprise the receptor for interferon-beta on the cells of the FACS assay; also called IFNAR1/2 cell surface receptor; cognate receptor on Daudi cells
T2 sequence (looked up) 1: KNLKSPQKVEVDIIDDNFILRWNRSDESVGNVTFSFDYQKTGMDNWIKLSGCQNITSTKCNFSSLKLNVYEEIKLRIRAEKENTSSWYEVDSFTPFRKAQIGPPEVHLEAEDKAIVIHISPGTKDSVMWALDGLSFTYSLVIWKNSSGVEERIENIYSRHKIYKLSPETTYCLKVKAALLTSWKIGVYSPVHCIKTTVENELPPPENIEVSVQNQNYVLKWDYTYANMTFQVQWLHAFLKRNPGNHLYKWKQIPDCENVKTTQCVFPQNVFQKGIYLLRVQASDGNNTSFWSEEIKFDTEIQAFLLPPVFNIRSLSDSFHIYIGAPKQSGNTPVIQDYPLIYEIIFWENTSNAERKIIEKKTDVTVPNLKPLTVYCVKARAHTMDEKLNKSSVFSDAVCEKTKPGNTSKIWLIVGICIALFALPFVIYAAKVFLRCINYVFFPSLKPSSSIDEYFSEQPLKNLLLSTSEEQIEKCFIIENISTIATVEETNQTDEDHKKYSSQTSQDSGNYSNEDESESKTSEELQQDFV
T2 sequence (looked up) 2: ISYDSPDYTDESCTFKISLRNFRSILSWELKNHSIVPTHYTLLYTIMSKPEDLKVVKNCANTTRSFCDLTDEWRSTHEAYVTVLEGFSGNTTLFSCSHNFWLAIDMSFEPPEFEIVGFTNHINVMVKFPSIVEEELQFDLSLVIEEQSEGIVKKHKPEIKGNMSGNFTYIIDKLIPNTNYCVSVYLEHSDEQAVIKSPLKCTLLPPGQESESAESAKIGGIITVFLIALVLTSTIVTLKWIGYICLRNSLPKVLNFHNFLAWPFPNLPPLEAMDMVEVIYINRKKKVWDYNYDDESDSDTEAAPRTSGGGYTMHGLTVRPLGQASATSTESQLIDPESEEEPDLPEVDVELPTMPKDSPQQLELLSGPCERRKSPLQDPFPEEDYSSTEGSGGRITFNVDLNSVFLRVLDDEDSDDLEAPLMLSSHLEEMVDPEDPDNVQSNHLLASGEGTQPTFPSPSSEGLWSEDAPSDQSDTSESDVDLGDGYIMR


Key:
[1] = target: T1, IFNAR2/Fc fusion protein (extracellular …); assay: ELISA on captured IFNAR2-Fc; wild type is the reference (100 %), its EC50 is not given
Procedure: The receptor binding properties of the Interferon-beta mutants described in C were assessed using two different binding assays. One assay measured binding of the interferon-beta mutants to a fusion protein, IFNAR2/Fc, comprising the extracellular domain of the human IFNAR2 receptor chain fused to part of the constant region of a human IgG. IFNAR2-Fc was expressed in chinese hamster ovary (CHO) cells and purified by protein A sepharose affinity chromatography according to the instructions of the manufacturer (Pierce Chem. Co., Rockford, Ill., catalog #20334). The binding of interferon-beta mutants to IFNAR2-Fc was measured in an ELISA format assay. […] Binding of the interferon-beta mutants to IFNAR2-Fc was measured by adding 50 μl/well mutant interferon-beta in conditioned media, serially diluted in Dulbecco's Modified Eagle's Medium (DMEM) supplemented with 10% fetal bovine serum, and incubating for 2 hours at 4° C. […] After washing, interferon-beta bound to the plates was detected by adding 50 μl/well of a cocktail consisting of a 1:1000 dilution of a rabbit polyclonal anti-interferon antibody (#447, Biogen, Inc.) plus horseradish peroxidase (HRP)-labelled donkey anti-rabbit IgG (Jackson ImmunoResearch), and incubating for 15 minutes at 4° C. […]

[2] = target: T2, type I interferon cell surface receptor …; assay: FACS receptor binding assay on Daudi cells; wild type is the reference (100 %), its value is not given
Procedure: A second receptor binding assay was used to measure the affinity with which the interferon-beta mutants bound to Daudi cells expressing both receptor chains, IFNAR1 and IFNAR2, which together comprise the receptor for interferon-beta. This FACS-based assay used a blocking monoclonal antibody directed against the extracellular domain of IFNAR1, EA12 (Biogen, Inc.), to distinguish unoccupied (free) receptor from receptor to which interferon-beta was bound. Daudi cells (20 μl at 2.5×10⁷ cells/ml) were placed in 96-well V-bottom ELISA plates, and incubated for 1 hour at 4° C. with various concentrations of interferon-beta mutant (20 μl in FACS buffer; 5% FBS, 0.1% NaN₃ in PBS). Desirable serial dilutions of interferon-beta mutants ranged from 0.5 μM down to 0.5 pM. To each well was added 100 ng of biotinylated murine anti-IFNAR1 monoclonal antibody EA12 (10 μl), and the plates incubated for an additional 2 minutes at room temperature before being washed twice with FACS buffer (4° C.). […] The samples were then analyzed by flow cytometry on a FACScan (Becton Dickinson). […]

[3] = target: T1, IFNAR2/Fc fusion protein (extracellular …); assay: ELISA on captured IFNAR2-Fc
Procedure: FIG. 3. Binding of alanine substituted interferon-beta mutants to a dimeric fusion protein comprised of the extracellular domain of the type I interferon receptor chain, IFNAR2/Fc. The binding affinities of the alanine substituted IFN mutants (A1-E) for the IFNAR2 receptor chain were determined as described in Example 1 (subsection D). The histogram presents their binding affinities in this assay relative to wild type his-IFN-beta (% w.t.). The % w. t. values were calculated as the (affinity of wild type his-IFN-beta)/(affinity of mutant IFN-beta)×100. The % w. t. (x) for multiple assays (n=3) and an average % w.t. (x) for the experimental set are shown.
(§1) The receptor binding properties of the Interferon-beta mutants described in C were assessed using two different binding assays. One assay measured binding of the interferon-beta mutants to a fusion protein, IFNAR2/Fc, comprising the extracellular domain of the human IFNAR2 receptor chain fused to part of the constant region of a human IgG. IFNAR2-Fc was expressed in chinese hamster ovary (CHO) cells and purified by protein A sepharose affinity chromatography according to the instructions of the manufacturer (Pierce Chem. Co., Rockford, Ill., catalog #20334). The binding of interferon-beta mutants to IFNAR2-Fc was measured in an ELISA format assay. ELISA plates were prepared by coating flat-bottomed 96 well plates overnight at 4° C. with 50 μl/well of mouse anti-human IgG1 monoclonal antibody (CDG5-AA9, Biogen, Inc.) at 10 μg/ml in coating buffer (50 mM NaHCO₃, 0.2 mM MgCl₂, 0.2 mM CaCl₂, pH 9.6). Plates were washed twice with PBS containing 0.05% Tween-20, and blocked with 0.5% non-fat dry milk in PBS for 1 hour at room temperature. After two more washes, 50 μl of 1 μg/ml IFNAR2-Fc in 0.5% milk in PBS containing 0.05% Tween-20 was added to each well and incubated for 1 hour at room temperature, and the plates were then washed twice more.

[4] = target: T1, IFNAR2/Fc fusion protein (extracellular …); assay: ELISA, IFNAR2-Fc captured on anti-human IgG1 antibody, mutant in conditioned medium
Procedure: as §1, with “more. Binding of the interferon-beta mutants to IFNAR2-Fc was measured by adding 50 μl/well mutant interferon-beta in conditioned media, serially diluted in Dulbecco's Modified Eagle's Medium (DMEM) supplemented with 10% fetal bovine serum, and incubating for 2 hours at 4° C. Dilutions of interferon-beta mutant typically ranged from approximately 1 μM down to 10 pM. After washing, interferon-beta bound to the plates was detected by adding 50 μl/well of a cocktail consisting of a 1:1000 dilution of a rabbit polyclonal anti-interferon antibody (#447, Biogen, Inc.) plus horseradish peroxidase (HRP)-labelled donkey anti-rabbit IgG (Jackson ImmunoResearch), and incubating for 15 minutes at 4° C. After two washes, HRP substrate was added, and the plate was incubated at 4° C. before being read on an ELISA plate reader at an absorbance of 450 nm. Data were plotted as absorbance versus the concentration of mutant interferon-beta, and the affinity for the binding of the mutant interferon-beta to IFNAR2-Fc was determined by fitting the data to a simple hyperbolic binding equation.” for “more.”

binding result [1] | binding result [2] | concentration tested relative to the w.t. his-IFN-beta EC50 [3] | binding result [4] | Binder
binds | binds |  |  | histidine tagged wild-type interferon-beta-1a (ligand, glycosylated at Asn 80 of the interferon-beta moiety (expressed in human EBNA 293 cells), Tested as conditioned medium of transfected EBNA 293 cells; also called his IFN-beta; His6-tagged) SGGHHHHHHSSGDDDDKMSYNLLGFLQRSSNFQCQKLLWQLNGRLEYCLKDRMNFDIPEEIKQLQQFQKEDAALTIYEMLQNIFAIFRQDSSSTGWNETIVENLLANVYHQINHLKTVLEEKLEKEDFTRGKLMSSLHLKRYYGRILHYLKAKEYSHCAWTIVRVEILRNFYFINRLTGYLRN
 |  | 500 fold | no binding | his tagged interferon-beta alanine substitution mutant A2 (ligand, glycosylated at Asn 80 of the interferon-beta moiety, also called A2 helix) SGGHHHHHHSSGDDDDKMSYNLLGFLQRSSNAACAALLAALNGRLEYCLKDRMNFDIPEEIKQLQQFQKEDAALTIYEMLQNIFAIFRQDSSSTGWNETIVENLLANVYHQINHLKTVLEEKLEKEDFTRGKLMSSLHLKRYYGRILHYLKAKEYSHCAWTIVRVEILRNFYFINRLTGYLRN
 |  | 500 fold | no binding | his tagged interferon-beta alanine substitution mutant AB1 (ligand, glycosylated at Asn 80 of the interferon-beta moiety) SGGHHHHHHSSGDDDDKMSYNLLGFLQRSSNFQCQKLLWQLNGRAAACAADRMNFDIPEEIKQLQQFQKEDAALTIYEMLQNIFAIFRQDSSSTGWNETIVENLLANVYHQINHLKTVLEEKLEKEDFTRGKLMSSLHLKRYYGRILHYLKAKEYSHCAWTIVRVEILRNFYFINRLTGYLRN
 |  | 500 fold | no binding | his tagged interferon-beta alanine substitution mutant AB2 (ligand, glycosylated at Asn 80 of the interferon-beta moiety) SGGHHHHHHSSGDDDDKMSYNLLGFLQRSSNFQCQKLLWQLNGRLEYCLKDRAAFAIPAEIKQLQQFQKEDAALTIYEMLQNIFAIFRQDSSSTGWNETIVENLLANVYHQINHLKTVLEEKLEKEDFTRGKLMSSLHLKRYYGRILHYLKAKEYSHCAWTIVRVEILRNFYFINRLTGYLRN
 |  | 500 fold | no binding | his tagged interferon-beta alanine substitution mutant E (ligand, glycosylated at Asn 80 of the interferon-beta moiety, also called E helix) SGGHHHHHHSSGDDDDKMSYNLLGFLQRSSNFQCQKLLWQLNGRLEYCLKDRMNFDIPEEIKQLQQFQKEDAALTIYEMLQNIFAIFRQDSSSTGWNETIVENLLANVYHQINHLKTVLEEKLEKEDFTRGKLMSSLHLKRYYGRILHYLKAKEYSHCAWTIVRAEILANFAFIARLTGYLRN
